Patent US20260132194A1 (XBIOTECH, published 2026)

Target: T1, recombinant human interleukin 1 alpha (IL-1α) (human, UniProt P01583 113-271)
T1 sequence (looked up): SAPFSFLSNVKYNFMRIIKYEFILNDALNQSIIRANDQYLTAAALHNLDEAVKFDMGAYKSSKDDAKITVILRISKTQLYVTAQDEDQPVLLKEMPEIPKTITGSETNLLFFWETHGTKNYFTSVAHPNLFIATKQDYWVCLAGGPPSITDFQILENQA
Experiment: cell-based or functional assay

HUVEC-based potency assay IC50 (ICAM-1 expression by flow cytometry): 5 ng/mL
B1: XIA14 human monoclonal antibody (antibody, V domains shown)
VH: QVQLVQSGAEVKKPGSSVKVSCKASGGRFTNYAILWVRQAPGQGLQWLGGIIPIFDETDHAQDFQDRLTITVDESMTTAYMELSSLRPEDTAIYYCATGSNSYYGLYWGQGTLVTVSS
VL: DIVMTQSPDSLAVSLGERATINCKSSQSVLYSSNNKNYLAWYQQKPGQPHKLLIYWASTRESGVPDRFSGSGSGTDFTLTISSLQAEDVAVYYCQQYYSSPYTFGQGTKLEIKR
